PMC7529705 (Biochemistry, 2020)

Target: WD-40 repeat-containing protein 5 (WDR5), full-length (human, UniProt P61964 1-334)
Assay: ITC

- Kd: 10.6 ± 0.8 µM
Binder: ARTKQTARKSTG [Histone H3 1–12aa unmodified peptide]
